As usually defined, the Kd is the equilibrium constant for the complex coming apart.

The target of the assay is SARS-CoV-2 spike RBD-Fc recombinant protein (ELISA) (SARS-CoV-2, UniProt P0DTC2). As to the kind of experiment: ELISA. Background: In an ELISA, binding on a coated surface is turned into a signal by an enzyme label.

B1: LRRC15-His (natural protein)
chain: YHGCPSECTCSRASQVECTGARIVAVPTPLPWNAMSLQILNTHITELNESPFLNISALIALRIEKNELSRITPGAFRNLGSLRYLSLANNKLQVLPIGLFQGLDSLESLLLSSNQLLQIQPAHFSQCSNLKELQLHGNHLEYIPDGAFDHLVGLTKLNLGKNSLTHISPRVFQHLGNLQVLRLYENRLTDIPMGTFDGLVNLQELALQQNQIGLLSPGLFHNNHNLQRLYLSNNHISQLPPSVFMQLPQLNRLTLFGNSLKELSPGIFGPMPNLRELWLYDNHISSLPDNVFSNLRQLQVLILSRNQISFISPGAFNGLTELRELSLHTNALQDLDGNVFRMLANLQNISLQNNRLRQLPGNIFANVNGLMAIQLQNNQLENLPLGIFDHLGKLCELRLYDNPWRCDSDILPLRNWLLLNQPRLGTDTVPVCFSPANVRGQSLIIINVNVAVPSVHVPEVPSYPETPWYPDTPSYPDTTSVSSTTELTSPVEDYTDLTTIQVTDDRSVWGMTQAQSG
For B1, the Kd is 165 nM.
